Measurements: PMC10341521, “Rapid Generation and Molecular Docking Analysis of Single-Chain Fragment Variable (scFv) Antibody Selected by Ribosome Display Targeting Cholecystokinin B Receptor (CCK-BR) for Reduction of Chronic Neuropathic Pain” (International Journal of Molecular Sciences, 2023)
Like-named read-outs stand apart in the source and are kept apart here.

T1: mouse CCK-B receptor peptide (custom 15-amino-acid extracellular mouse sequence) (Mus musculus, UniProt P56481)
T1 chain: CETPRIRGTGTRELE

T2: mouse CCK-B receptor peptide (custom 15-amino-acid extracellular mouse sequence) (mouse)
T2 chain: CETPRIRGTGTRELE


Assays:
[1] = target: T1, mouse CCK-B receptor peptide (custom …)
[2] = target: T1, mouse CCK-B receptor peptide (custom …); assay: not stated
[3] = target: T2, mouse CCK-B receptor peptide (custom …); assay: BLI
[4] = target: T1, mouse CCK-B receptor peptide (custom …); assay: BLI; Octet RED384 instrument; scFv77-2 and mouse CCK-B peptide; conditions: both partners purified
[5] = target: T1, mouse CCK-B receptor peptide (custom …); assay: ELISA; indirect ELISA of the scFvs on CCK-B receptor peptide, concentration-dependent; apparent affinity; methods in the supplementary section; conditions: both partners purified

| Binder | binding result [1] | also measured |
| --- | --- | --- |
| CCK-BR_scFv93-1 (antibody, V domains shown) VH: QVQLKESGPGLVAPSQSLSITCTVSGFSLTSYGVHWVRQPPGKGLEWLGVIWAGGSTNYNSALMSRLSISKDNSKSQVFLKMNSLQTDDTAMYYCARGLRGAMDYWGQGTSVTVSS VL: DIVMTQSPSSLSVSAGEKVTMSCKSSQSLLASGNQNNYLAWHQQKPGRSPKMLIIWASTRESGVPDRFTGSGSGTDFTLTISSVQAEDVAVYYCQNDHSYPFTFGSGTKLEIK | binds | – |
| CCK-BR_scFv11-2 (antibody, V domains shown) VH: QVQLKQSGAELVRPGSSVKISCKASGYAFTNYLIEWVKQRPGQGLEWIGQIYPGDGDTNYNGKFKGKATLTVDNSSSTAYMELRSLTSEDSAVYYCARAATWYYAMDYWGQGTSVTVSS VL: QIVLTQSPAIMSASPGEKVTITCSASSSVSYMHWFQQKPGTSPKLWIYSTSNLASGVPARFSGSGSGTSYSLTISSMEAEDAASYFCHQWSSYPWTFGGGTKLEIK | binds | – |
| CCK-BR_scFv8-3 (antibody, V domains shown) VH: QVQLKESGAELAKPGASVKMSCKASGYTFTSYWMHWVKQRPGQGLEWIGYINPSTGYTEYNQKFKDKATLTADKSSSTAYMQLSSLTSEDSAVYYCARDYGSSFDYWGQGTTLTVSS VL: DVVMTQTPLTLSVTIGQPASISCKSSQSLLDSGNQKNYLAWYQQKPGQPPKLLIYGASTRESGVPDRFTGSGSGTDFTLTISSVQAEDLAVYYCQNDHSYPYTFGGGTKLEIK | binds | – |
| CCK-BR_scFv13-3 (antibody, V domains shown) VH: EVQLQQSGAELVKPGASVKMSCKASGYTFTSYWMHWVKQRPGQGLEWIGYINPSTGYTEYNQKFKDKATLTADKSSSTAYMQLSSLTSEDSAVYYCAGDNYGYWYFDVWGAGTTVTVSS VL: DIVMTQSPSSLSVSAGEKVTMSCKSSQSLLNSGNQKNYLAWYQQKPGQPPKLLIYGASTRESGVPDRFTGSGSGTDFTLTISSVQAEDLAVYYCQNDHSYPYTFGGGTKLEIK | binds | – |
| CCK-B scFv77-2 antibody (scFv, V domains shown, VH of scFv77-2; 20-amino-acid flexible linker, printed as the formula [(G4S)4] and written out from it; VL of scFv77-2; Selected by ribosome display from a library of immunised mice; Apparent mass 26 kDa on the gel; The His-tag is named only for the Western blots of tissue after injection; Construct and methods are in the supplementary section; also called CCK-BR scFv 77-2; CCKBR scFv 77-2; …) VH: EVQLQQSGAELVRSGASVKLSCTASGFNIKDYYIHWVKQRPEQGLEWIGWIDPENGDTEYAPKFQGKATMTADTSSNTAYLQLSSLTSEDTAVYYCNAGGRFAYWGQGTLVTVSA VL: DIVMTQSPSSLSVSAGEKVTMSCKSSQSLLNSGNQKNYLAWYQQKPGQPPKLLIYGASTRESGVPDRFTGSGSGTDFTLTISSVQAEDLAVYYCQNDHSYPYTFGGGTKLEIK | – | Kd [2]: 195 nM; koff [3]: 0.000381 s⁻¹; Kd [4]: 17.9 nM |
| CCK-B scFv134-1 antibody (scFv, V domains shown, VH of scFv134-1; 20-amino-acid flexible linker, printed as the formula [(G4S)4] and written out from it; VL of scFv134-1; One of the panel of 7 anti-CCK-B receptor scFvs; Construct and methods are in the supplementary section; source: E. coli cytoplasm (pET32a expression vector), purified) VH: EVQLQQSGAELVKPGASVKMSCKASGYTFTDYWMHWVKQRPGQGLEWIGAIDTSDSYTSYNQKFKGKATLTVDKSSSTAYIQLSSLTSEDSAVYYCARSEGYLPFDYWGQGTTLTVSS VL: DVVMTQTPLSLPVSFGDQVSISCRSSQSLANSYGNTYLSWYLHKPGQSPQLLIYGISNRFSGVPDRFSGSGSGTDFTLKISTIKPEDLGMYYCLQGTHQPRTFGGGTKLEIK | – | binding result [5]: binds |
